According to patent US7407783B2, “Fructosylamine oxidase” (priority 2002, dated 2008):
Entries after “also recorded” stand apart in the source; their conditions may differ.

B1: FAO-Q2: fructosylamine oxidase from Fusarium proliferatum GL2-1, Resource Q fraction Q2; amino acid sequence SEQ ID NO: 6 (protein, listed as Fusarium proliferatum)
chain: MARTVAPLNKDSGILIVGGGTWGCSTALHLARRGYTNVTVLDVNRIPSPISAGHDVNKLSNRLGTSDSKGDDEDSIWKALTYAAAQGWLHDPIFQPFCHNTGAVMAGSTPKSIKQLVEDEIGDDIDQYTPLNTAEDFRRTMPERILTGDFLGWKGFYKPRGSGWVHARKAMKAAFEESQRLGVKFITGSPEGKVESLVFEAGDVKGAKTADGKEHRADRTILSAGASAEFSLDFENQIRPTAWTLGHIQMTAEETKLYKELPPLFNINQGFFMEPDEDLHQLKMCDEHPGYCNWVDKPGSKYPQSIPFAKYQVPIEAERRMKQFLKDIMPQLADRPLVHARICWCADTQDRMFLITYHPRHPSLVIASGDCGTGYKHITSIGKFISDCMEGTLEERFAKFWRWRPEKFTEFWGKDPLDRFGADDKIMDLPKSDAEGWTDIQNDK
B2: FAO-Q1: fructosylamine oxidase from Fusarium proliferatum GL2-1, Resource Q fraction Q1; amino acid sequence SEQ ID NO: 4 (protein, listed as Fusarium proliferatum)
chain: MAGPPSSILIVGSGVFGLGTAWALAKRSHFSNTSITVVDDCAGQFPPEDAASVDSSRIVRADYSDPYYAALAAEAQKEWRKQGDHEVGGQGRYSESGFVLCASETPEDFKLKKSGMDYTKESAKNVELIAKETGLPVDKIQKLESTKALQEFLGTDGYPGDWGYLNGNSGWADAGEGMKWLYKQAQATGRIHFVNGKVTELVTEGDRVIGAKLSDSKILKADVVMVAAGAWSGSLVDLRGRTEATGHAVAYMDITPEEQKRLDNFPVVLNLSTGLFLIPPRNNVLKAARHTFGYINPVKINNALPPSPNDKREPFIASQPYTSRNDSSNPLTVEADKDLRRALTDLCPIRGLETRPWKEARICWYSDTRDGEWLIDYHPGWKGLFVATGDSGHGFKFLPNLGEKIVDVMQGQGGKLGEKWRWKEIQNDGVGRETNGVYTGLVTEDGSRGGRPLVLCDELEKGRALIGNTKAKL

Columns and labels:
FAO-Q2 = assay: Substrate specificity of FAO-Q2 (FAO activity, rate method, H2O2 colorimetry); assay type: biochemical, Fusarium proliferatum; settings: for Relative activity (%) FAO-Q2: activity of FAO-Q2 on the substrate, FV = 100
Method: (§1) Titration of enzyme can be performed by a method known in the art (e.g., kinetic method), for example, that described in Example 1 (3). In this method, hydrogen peroxide generated by the reaction of an FAO with a glycated amino acid or peptide is measured on the basis of absorbance (505 nm) of quinone pigment produced in the presence of hydrogen peroxide. The amount (μmole) of hydrogen peroxide generated per minute is calculated on the basis of molar absorptivity (5.16×10^3 M^−1 cm^−1) of quinone pigment and the resultant numerical value is taken as a unit (U) of enzyme activity.
(§2) FAO activity of the crude enzyme solution was determined by the aforementioned rate method. The time-course of generation of hydrogen peroxide in the reaction mixture below was measured by a colorimetric method, and FAO activity was evaluated.
(§3) A mixture (total 3 ml) except for the enzyme solution was equilibrated at 30° C. After adding the enzyme solution, the time-course of absorbance at 505 nm was measured. The amount (μmole) of hydrogen peroxide generated per minute was calculated on the basis of molar absorptivity (5.16×10^3 M^−1 cm^−1) of quinone pigment produced, and the resultant numerical value was taken as a unit(U) of enzyme activity. As a result, a strain having FAO was obtained.
The substrate specificity of the enzymes (FAO-Q1, FAO-Q2) contained in 2 fractions separated in (1), 3) above was determined. The FAO activity was measured using the respective two fractions as an enzyme solution according to the method described in Example 1(3). As a substrate, FV, FVH, FVHL, FVL, FVLS and FZL were used.

FAO-Q1 = FAO-Q1 (Fusarium proliferatum, UniProt A0A1L7VP54); assay: Substrate specificity of FAO-Q1 (FAO activity, rate method, H2O2 colorimetry); assay type: biochemical
Method: as §1, §2
as §3, with “As a result, a strain having FAO was obtained.” left out
The substrate specificity of the enzymes (FAO-Q1, FAO-Q2) contained in 2 fractions separated in (1), 3) above was determined. […]

[1] = test system: O=C(N[C@@H](CCCCNCC1(O)OC[C@@H](O)[C@@H](O)[C@@H]1O)C(=O)O)OCc1ccccc1; assay: cells, lysate or membranes named; settings: other: substrate FV or FZL; 30.0 °C
Text: Michaelis constant for respective substrates can be determined by measuring the initial reaction rate in the process for determination of titer as described above while keeping the conditions regarding enzyme concentration, pH, temperature, and the like constant and changing only the concentration of substrate.

[2] = test system: CC(C)[C@H](NCC1(O)OC[C@@H](O)[C@@H](O)[C@@H]1O)C(=O)O; assay: cells, lysate or membranes named; settings: other: substrate FV or FZL; 30.0 °C
[3] = Determination of optimum pH of the enzyme reaction; assay type: biochemical, Fusarium proliferatum; settings: pH 3.5-10.0 tested, at 30° C.
Method: Enzyme reaction was conducted under different pH conditions between 3.5 and 10.0 according to the method for determination of activity as described above.
The buffers used were 100 mM acetate buffer at pH range of 3.5-6.0, 100 mM potassium phosphate buffer at pH range of 6.0-8.0, 100 mM Tris-HCl buffer (pH range of 7.0-9.0) and 100 mM glycin-NaOH buffer at pH range of 9.0-10.0.

[4] = FAO activity of Resource Q fractions using FV as a substrate; assay type: biochemical, Fusarium proliferatum; settings: Resource Q fraction
Method: as §2, §3
The ammonium sulfate fraction after dialysis was subjected to chromatography under the following conditions.
Measurement of activity was performed in a similar manner to that described in Example 1 (3). FAOs contained in these fractions are herein referred to as “FAO-Q1” and “FAO-Q2”.

[5] = Determination of optimum temperature for stability of enzyme; assay type: physicochemical, Fusarium proliferatum; settings: incubated in 0.1 M Tris-HCl buffer (pH 8.0) at 30-65° C. for 10 minutes
Method: Temperature conditions for the enzyme were determined by incubating FAO-Q1 or FAO-Q2 in 0.1 M Tris-HCl buffer (pH 8.0) at a temperature between 30 and 65° C. for 10 minutes, and measuring the activity under normal conditions.

| Molecule | Activity of FAO-Q2 on the substrate (in words) (FAO-Q2) | Relative activity (%) FAO-Q2 (FAO-Q2) | Optimum pH for enzyme reaction [3] | specific activity(U/mg) [4] | Optimum temperature for stability of enzyme [5] | other results |
| --- | --- | --- | --- | --- | --- | --- |
| O=C(N[C@@H](CCCCNCC1(O)OC[C@@H](O)[C@@H](O)[C@@H]1O)C(=O)O)OCc1ccccc1 (stereo partly shown) [FZL] | inactive and not | – | – | – | – | Activity of FAO-Q1 on the substrate (in words) (FAO-Q1): almost equally active; also recorded: almost the same activity; Relative activity (%) FAO-Q1 (FAO-Q1; activity of FAO-Q1 on the substrate, FV = 100): 108% |
| FAO-Q1 (Fusarium proliferatum ET1) | – | – | – | – | – | Km [1]: 560 µM; Km [2]: 620 µM |
| fructosyl valine-histidine-leucine (VHL) [FVHL] | active | 0.6% | – | – | – | – |
| fructosyl valine-leucine-serine (VLS) [FVLS] | – | 3.3% | – | – | – | – |
| B1 | – | – | about 7.0 | 0.067 U/mg | 30-40 °C | Optimum pH for enzyme reaction ([3]; listed as FAO-O2): 7 |
| B2 | – | – | about 7.5 | 0.3 U/mg | 30-40 °C | Optimum pH for enzyme reaction ([3]; listed as FAO-O 1): 7.5 |
